Experiment [1] relates to DSS model of inflammatory bowel disease. The experiment can be described thus: DSS model: gross pathology score. Format: in vivo, C57BL/6 mice. To be noted: FIG. 9. The protocol:
Eight-week old C57BL/6 mice were housed 5 animals were cage and given food and water ad libitum for 7 days. Following the 7-day acclimation period, treatments were initiated concurrently with addition of 2.5% DSS to the drinking water. […] The mice were treated with 2.5% dextran sodium sulfate (DSS) in their drinking water for 6 days. Treatments were continued with SG-14 or […]-GLP2 twice a day (b.i.d.) in the morning and evening (every 8 and 16 hr) with i.p. injections at 50 nmoles/kg. Fresh 2.5% DSS drinking water was prepared every 2 days. Gross pathology observations were made in mice included in the concurrent DSS model performed in this Example. […] The scoring system used was: (0)=no gross pathology, (1)=streaks of blood visible in feces, (2)=completely bloody fecal pellets, (3) bloody fecal material visible in cecum, (4) bloody fecal material in cecum and loose stool, (5)=rectal bleeding. The graph in FIG. 9 represents data pooled from the single experiment (n=10).

For a further experiment, the system named is IL-10. The experiment can be described thus: IL-10 production by monocytes in co-culture TEER assay (Luminex). The experiment is classed as cell-based, human. The following applies: pre-incubated 6 hours prior to HK E. coli; FIG. 3. Here is the method:
IL-10 production was measured in tissue culture supernatant from the basolateral chamber of the co-culture TEER assay described in Example 2 containing monocytes. Luminex analysis was performed to determine the pg/ml concentration of IL-10 produced by the monocytes. IL-10 production in untreated cells and cells pre-incubated with SG-14 for 6 hours prior to HK E. coli treatment were normalized to pg/ml concentrations elicited by HK E. coli which was set to 1.0. Pre-incubation with SG-14 increased IL-10 production to 1.21. The graph in FIG. 3 represents data pooled from two individual experiments (n=6).

Experiment [2] relates to LPS binding protein (LBP). Briefly: DSS model: LPS binding protein (LBP) in serum by ELISA. The experiment is classed as in vivo, C57BL/6 mice. To be noted: 50 nmoles/kg i.p. b.i.d., 2.5% DSS; FIG. 7. Here is the method: Eight-week old C57BL/6 mice were housed 5 animals were cage and given food and water ad libitum for 7 days. Following the 7-day acclimation period, treatments were initiated concurrently with addition of 2.5% DSS to the drinking water. […] The mice were treated with 2.5% dextran sodium sulfate (DSS) in their drinking water for 6 days. Treatments were continued with SG-14 or Gly2-GLP2 twice a day (b.i.d.) in the morning and evening (every 8 and 16 hr) with i.p. injections at 50 nmoles/kg. Fresh 2.5% DSS drinking water was prepared every 2 days.
SG-14 was also assessed for its effects on the levels of LPS binding protein (LBP) in the blood of the DSS animal with and without SG-14 administration. LPS binding protein (LBP), which has been linked to clinical disease activity in subjects with inflammatory bowel disease, was also measured by ELISA in the serum of mice tested in the DSS model described in Example 7. […] Results are shown in FIG. 7, and are presented as mean f SEM. The graph in FIG. 7 represents data pooled from the single experiment (n=10).

Another experiment relates to IL-23. Briefly: IL-23 production by monocytes in co-culture TEER assay (Luminex). Format: cell-based, human. To be noted: pre-incubated 6 hours prior to HK E. coli; p=0.80; FIG. 2B. Here is the method:
Production of the pro-inflammatory cytokines TNF-α and IL-23 by monocytes was measured in the tissue culture supernatant from the basolateral chamber of the co-culture TEER assay performed in Example 2. Following TEER readings, the supernatants were centrifuged at 10,000 g for 5 minutes at 4° C. to remove cell debris. Luminex analysis was performed according to the manufacturer's instructions (Magpix instrument and xPonent software version 4.2; Luminex Corporation (Austin, TX)). Luminex analysis was performed to determine the pg/ml concentration of TNF-α and IL-23 produced by monocytes. Luminex analysis utilizes a bead-based system for quantification of multiple cytokines from a single sample. Like an ELISA, Luminex beads are coated with a capture antibody, and incubation with samples allows the target to bind to the capture antibody. Beads are washed and incubated with a fluorescently labeled detection antibody for quantification of bound target. Cytometric analysis is used to differentiate bead populations, which are loaded with differential fluorescent dyes, and to quantify cytokine levels by measuring detection antibody signal. TNF-α production in untreated cells and cells pre-incubated with SG-14 for 6 hours prior to HK E. coli treatment were normalized to pg/ml concentrations elicited by HK E. coli which was set to 1.0. […]

Experiment [3] deals with HCT8 enterocyte and HT29-MTX goblet cell lines. Briefly: Oris Cell Migration assay (epithelial cell wound healing). Format: cell-based, human. The following applies: 48 hours; SG-14 1 μg/ml, EGF 30 ng/ml, staurosporine 100 nM; FIG. 5. From the text:
The 96 well Oris Cell Migration assay containing plugs preventing cell attachment in the center of each well was used according to the manufacturer's instructions (Platypus Technologies, Madison, WI). The migration assay plates were warmed to room temperature prior to use and plugs were removed from 100% confluence wells prior to cell addition. The HCT8 enterocyte and HT29-MTX goblet cell lines were used at a 9:1 ratio with a total of 5×10^4 total cells added per well (4.5×10^4 HCT8 cells and 0.5×10^4 HT29-MTX cells). Cells were incubated at 37° C.+5% CO2 for 24 hours. Plugs were then removed from all control and sample wells. Control wells included cells treated with the diluent vehicle as the blank, 30 ng/ml epidermal growth factor (EGF) as the positive control, and 100 nM staurosporine as the negative control, all diluted in cRPMI. Sample wells contained SG-14 protein at a concentration of 1 μg/ml diluted in cRPMI. 100% and 0% wells were cultured in cRPMI. […] The green fluorescent viability dye […] was added to all wells at a concentration of […] in PBS containing 0.9 mM CaCl2) and 0.5 mM MgCl2, incubated for 30 min at 37° C.+5% CO2, the dye was removed and cells were washed in PBS containing 0.9 mM CaCl2) and 0.5 mM MgCl2 and fluorescence was measured. […] Samples were normalized between 100% and 0% samples and values expressed as a percent growth.

B1: SG-14: Eubacterium eligens protein comprising SEQ ID NO:3; tested form expressed in E. coli, with exogenous GPLG at N-terminus and PHRD at C-terminus (protein)
chain: GCARNSTSTTTASGGETTITSAITKEDTDVTHADDAENYRVSITGDFTVTSDTSDGVTQSGSVYTITKAGEYTVTGLLSEGQLIVDAGNENEVTIVLNGTSITCSSGSPIYVKNASEVKIKSEENSFNEVIDNRNEATEDSSDDAGNAAIYATCDLKLVGKGALVVTGNYNNGIQSKDDLSIKNVIVKVTAVNNAVKVNDAVDIESGNIIAISAKGDGIKTSNSSISNKGNQKGIVTITSGNIDIYAACDGIDASYGADISGDGNLNIYTDTYSEYSEEVTSSGSSSGTSSGRDSSANKSASANTVSYVATSDTIANAPSGFGGGNMGSGNAPDMSNGNAPNMNGSSDRNKTGGNRPGMPGDFNESGNSSGQSYSTKGIKAESEINISGFTINICSTDDGIHANSDSGVLETGEDGKGTIVINGGSITISSGDDGMHADKQLDVNDGYINVVTSYEGLEAMTINLNGGKIYVYATDDGINACTGDGKTSPIVNVTGGYIDVTTTSGDTDGIDSNGNYVQTGGFVLVKGGSSSGNVSGSIDVDGTVTITGGTCVALGGVCETPVNSANAYVLGSVSFSSGSYSLKDSSGNEVISFTVDGSFSNGWICSDTLTTGSSYTLYRGADSIADWTQE
modifications: N-terminal GPLG and C-terminal PHRD
Regarding B1, the “Gross pathology score (0-5) vs vehicle treated DSS mice” value in experiment [1] (50 nmoles/kg i.p. b.i.d., 2.5% DSS) was “significantly improved gross pathology”. In addition, in experiment [1], the “Clinical scores vs DSS mice treated with Gly2-GLP2” value is “No differences”. The “IL-10 production normalized to HK E. coli (set to 1.0)” value in the experiment with IL-10 is recorded as 1.21. In experiment [2], the “Serum LBP concentration vs DSS mice treated with vehicle” value is on record as “significant reduction” and the “Serum LBP concentration vs control peptide Gly2-GLP2” value is reported as “greater impact on LBP concentration”. Further, the “IL-23 production normalized to HK E. coli (set to 1.0)” value in the experiment with IL-23 is given as 1.1. In addition, in experiment [3], the “Wound healing (percent growth)” value is “significant increase in growth”.
